Test results taken from PMC3423971 (Structure (London, England : 1993), 2012).

B1: wild-type SAGA deubiquitinating module (DUBm): Ubp8, Sgf11, Sus1, Sgf73(1-96) (complex, yeast)
chain 1: MSICPHIQQVFQNEKSKDGVLKTCNAARYILNHSVPKEKFLNTMKCGTCHEINSGATFMCLQCGFCGCWNHSHFLSHSKQIGHIFGINSNNGLLFCFKCEDYIGNIDLINDAILAKYWDDVCTKTMVPSMERRDGLSGLINMGSTCFMSSILQCLIHNPYFIRHSMSQIHSNNCKVRSPDKCFSCALDKIVHELYGALNTKQASSSSTSTNRQTGFIYLLTCAWKINQNLAGYSQQDAHEFWQFIINQIHQSYVLDLPNAKEVSRANNKQCECIVHTVFEGSLESSIVCPGCQNNSKTTIDPFLDLSLDIKDKKKLYECLDSFHKKEQLKDFNYHCGECNSTQDAIKQLGIHKLPSVLVLQLKRFEHLLNGSNRKLDDFIEFPTYLNMKNYCSTKEKDKHSENGKVPDIIYELIGIVSHKGTVNEGHYIAFCKISGGQWFKFNDSMVSSISQEEVLKEQAYLLFYTIRQVN
chain 2: MTEETITIDSISNGILNNLLTTLIQDIVARETTQQQLLKTRYPDLRSYYFDPNGSLDINGLQKQQESSQYIHCENCGRDVSANRLAAHLQRCLSRGARR
chain 3: MTMDTAQLKSQIQQYLVESGNYELISNELKARLLQEGWVDKVKDLTKSEMNINESTNFTQILSTVEPKALEMVSDSTRETVLKQIREFLEEIVDTQ
chain 4: MRSGDAEIKGIKPKVIEEYSLSQGSGPSNDSWKSLMSSAKDTPLQYDHMNRESLKKYFNPNAQLIEDPLDKPIQYRVCEKCGKPLALTAIVDHLEN
B2: DUBm-ΔSgf11-ZnF-Ubp8^S149N: Ubp8 S149N, Sgf11(1-72), Sus1, Sgf73(1-96) (complex, yeast)
chain 1: MSICPHIQQVFQNEKSKDGVLKTCNAARYILNHSVPKEKFLNTMKCGTCHEINSGATFMCLQCGFCGCWNHSHFLSHSKQIGHIFGINSNNGLLFCFKCEDYIGNIDLINDAILAKYWDDVCTKTMVPSMERRDGLSGLINMGSTCFMNSILQCLIHNPYFIRHSMSQIHSNNCKVRSPDKCFSCALDKIVHELYGALNTKQASSSSTSTNRQTGFIYLLTCAWKINQNLAGYSQQDAHEFWQFIINQIHQSYVLDLPNAKEVSRANNKQCECIVHTVFEGSLESSIVCPGCQNNSKTTIDPFLDLSLDIKDKKKLYECLDSFHKKEQLKDFNYHCGECNSTQDAIKQLGIHKLPSVLVLQLKRFEHLLNGSNRKLDDFIEFPTYLNMKNYCSTKEKDKHSENGKVPDIIYELIGIVSHKGTVNEGHYIAFCKISGGQWFKFNDSMVSSISQEEVLKEQAYLLFYTIRQVN
chain 2: MTEETITIDSISNGILNNLLTTLIQDIVARETTQQQLLKTRYPDLRSYYFDPNGSLDINGLQKQQESSQYIH
chain 3: MTMDTAQLKSQIQQYLVESGNYELISNELKARLLQEGWVDKVKDLTKSEMNINESTNFTQILSTVEPKALEMVSDSTRETVLKQIREFLEEIVDTQ
chain 4: MRSGDAEIKGIKPKVIEEYSLSQGSGPSNDSWKSLMSSAKDTPLQYDHMNRESLKKYFNPNAQLIEDPLDKPIQYRVCEKCGKPLALTAIVDHLEN
B3: DUBm-ΔSgf11-ZnF-Ubp8^WT: Ubp8, Sgf11(1-72), Sus1, Sgf73(1-96) (complex, yeast)
chain 1: MSICPHIQQVFQNEKSKDGVLKTCNAARYILNHSVPKEKFLNTMKCGTCHEINSGATFMCLQCGFCGCWNHSHFLSHSKQIGHIFGINSNNGLLFCFKCEDYIGNIDLINDAILAKYWDDVCTKTMVPSMERRDGLSGLINMGSTCFMSSILQCLIHNPYFIRHSMSQIHSNNCKVRSPDKCFSCALDKIVHELYGALNTKQASSSSTSTNRQTGFIYLLTCAWKINQNLAGYSQQDAHEFWQFIINQIHQSYVLDLPNAKEVSRANNKQCECIVHTVFEGSLESSIVCPGCQNNSKTTIDPFLDLSLDIKDKKKLYECLDSFHKKEQLKDFNYHCGECNSTQDAIKQLGIHKLPSVLVLQLKRFEHLLNGSNRKLDDFIEFPTYLNMKNYCSTKEKDKHSENGKVPDIIYELIGIVSHKGTVNEGHYIAFCKISGGQWFKFNDSMVSSISQEEVLKEQAYLLFYTIRQVN
chain 2: MTEETITIDSISNGILNNLLTTLIQDIVARETTQQQLLKTRYPDLRSYYFDPNGSLDINGLQKQQESSQYIH
chain 3: MTMDTAQLKSQIQQYLVESGNYELISNELKARLLQEGWVDKVKDLTKSEMNINESTNFTQILSTVEPKALEMVSDSTRETVLKQIREFLEEIVDTQ
chain 4: MRSGDAEIKGIKPKVIEEYSLSQGSGPSNDSWKSLMSSAKDTPLQYDHMNRESLKKYFNPNAQLIEDPLDKPIQYRVCEKCGKPLALTAIVDHLEN
B4: DUBm-ΔSgf11-ZnF-Ubp8^S144N: Ubp8 S144N, Sgf11(1-72), Sus1, Sgf73(1-96) (complex, yeast)
chain 1: MSICPHIQQVFQNEKSKDGVLKTCNAARYILNHSVPKEKFLNTMKCGTCHEINSGATFMCLQCGFCGCWNHSHFLSHSKQIGHIFGINSNNGLLFCFKCEDYIGNIDLINDAILAKYWDDVCTKTMVPSMERRDGLSGLINMGNTCFMSSILQCLIHNPYFIRHSMSQIHSNNCKVRSPDKCFSCALDKIVHELYGALNTKQASSSSTSTNRQTGFIYLLTCAWKINQNLAGYSQQDAHEFWQFIINQIHQSYVLDLPNAKEVSRANNKQCECIVHTVFEGSLESSIVCPGCQNNSKTTIDPFLDLSLDIKDKKKLYECLDSFHKKEQLKDFNYHCGECNSTQDAIKQLGIHKLPSVLVLQLKRFEHLLNGSNRKLDDFIEFPTYLNMKNYCSTKEKDKHSENGKVPDIIYELIGIVSHKGTVNEGHYIAFCKISGGQWFKFNDSMVSSISQEEVLKEQAYLLFYTIRQVN
chain 2: MTEETITIDSISNGILNNLLTTLIQDIVARETTQQQLLKTRYPDLRSYYFDPNGSLDINGLQKQQESSQYIH
chain 3: MTMDTAQLKSQIQQYLVESGNYELISNELKARLLQEGWVDKVKDLTKSEMNINESTNFTQILSTVEPKALEMVSDSTRETVLKQIREFLEEIVDTQ
chain 4: MRSGDAEIKGIKPKVIEEYSLSQGSGPSNDSWKSLMSSAKDTPLQYDHMNRESLKKYFNPNAQLIEDPLDKPIQYRVCEKCGKPLALTAIVDHLEN
B5: Ubp8 S144N (enzyme, yeast)
chain: MSICPHIQQVFQNEKSKDGVLKTCNAARYILNHSVPKEKFLNTMKCGTCHEINSGATFMCLQCGFCGCWNHSHFLSHSKQIGHIFGINSNNGLLFCFKCEDYIGNIDLINDAILAKYWDDVCTKTMVPSMERRDGLSGLINMGNTCFMSSILQCLIHNPYFIRHSMSQIHSNNCKVRSPDKCFSCALDKIVHELYGALNTKQASSSSTSTNRQTGFIYLLTCAWKINQNLAGYSQQDAHEFWQFIINQIHQSYVLDLPNAKEVSRANNKQCECIVHTVFEGSLESSIVCPGCQNNSKTTIDPFLDLSLDIKDKKKLYECLDSFHKKEQLKDFNYHCGECNSTQDAIKQLGIHKLPSVLVLQLKRFEHLLNGSNRKLDDFIEFPTYLNMKNYCSTKEKDKHSENGKVPDIIYELIGIVSHKGTVNEGHYIAFCKISGGQWFKFNDSMVSSISQEEVLKEQAYLLFYTIRQVN
B6: DUBm-ΔSgf11-ZnF-Ubp8^S144N/S149N: Ubp8 S144N S149N, Sgf11(1-72), Sus1, Sgf73(1-96) (complex, yeast)
chain 1: MSICPHIQQVFQNEKSKDGVLKTCNAARYILNHSVPKEKFLNTMKCGTCHEINSGATFMCLQCGFCGCWNHSHFLSHSKQIGHIFGINSNNGLLFCFKCEDYIGNIDLINDAILAKYWDDVCTKTMVPSMERRDGLSGLINMGNTCFMNSILQCLIHNPYFIRHSMSQIHSNNCKVRSPDKCFSCALDKIVHELYGALNTKQASSSSTSTNRQTGFIYLLTCAWKINQNLAGYSQQDAHEFWQFIINQIHQSYVLDLPNAKEVSRANNKQCECIVHTVFEGSLESSIVCPGCQNNSKTTIDPFLDLSLDIKDKKKLYECLDSFHKKEQLKDFNYHCGECNSTQDAIKQLGIHKLPSVLVLQLKRFEHLLNGSNRKLDDFIEFPTYLNMKNYCSTKEKDKHSENGKVPDIIYELIGIVSHKGTVNEGHYIAFCKISGGQWFKFNDSMVSSISQEEVLKEQAYLLFYTIRQVN
chain 2: MTEETITIDSISNGILNNLLTTLIQDIVARETTQQQLLKTRYPDLRSYYFDPNGSLDINGLQKQQESSQYIH
chain 3: MTMDTAQLKSQIQQYLVESGNYELISNELKARLLQEGWVDKVKDLTKSEMNINESTNFTQILSTVEPKALEMVSDSTRETVLKQIREFLEEIVDTQ
chain 4: MRSGDAEIKGIKPKVIEEYSLSQGSGPSNDSWKSLMSSAKDTPLQYDHMNRESLKKYFNPNAQLIEDPLDKPIQYRVCEKCGKPLALTAIVDHLEN
B7: Ubp8 (wild type) (enzyme, yeast)
chain: MSICPHIQQVFQNEKSKDGVLKTCNAARYILNHSVPKEKFLNTMKCGTCHEINSGATFMCLQCGFCGCWNHSHFLSHSKQIGHIFGINSNNGLLFCFKCEDYIGNIDLINDAILAKYWDDVCTKTMVPSMERRDGLSGLINMGSTCFMSSILQCLIHNPYFIRHSMSQIHSNNCKVRSPDKCFSCALDKIVHELYGALNTKQASSSSTSTNRQTGFIYLLTCAWKINQNLAGYSQQDAHEFWQFIINQIHQSYVLDLPNAKEVSRANNKQCECIVHTVFEGSLESSIVCPGCQNNSKTTIDPFLDLSLDIKDKKKLYECLDSFHKKEQLKDFNYHCGECNSTQDAIKQLGIHKLPSVLVLQLKRFEHLLNGSNRKLDDFIEFPTYLNMKNYCSTKEKDKHSENGKVPDIIYELIGIVSHKGTVNEGHYIAFCKISGGQWFKFNDSMVSSISQEEVLKEQAYLLFYTIRQVN

What was measured:
ubiquitin-AMC = ubiquitin-AMC (UniProt P0CG48 1-76, AMC (ubiquitin-AMC)); experiment: cell-based or functional assay
AUC [1] = molecular target: the molecule itself; experiment: AUC
AUC [2] = molecular target: the molecule itself; experiment: AUC; remark: listed apart in the source
crystal structure = molecular target: the molecule itself; experiment: crystal structure

Row | Binder | KM of Ub-AMC cleavage (steady-state kinetics, 30°C) (ubiquitin-AMC) [µM] | Kd (AUC [1]) [µM] | stoichiometry N (AUC [2]) | binding result (crystal structure)
1 | B1 | 24 | – | – | –
2 | B2 | 11 | – | – | –
3 | B3 | 19 | ~17 | 2 | –
4 | B4 | 17 | 28 | 2 | –
5 | B5 | – | – | – | binds
6 | B6 | 13 | – | – | –
7 | B7 | – | – | – | binds
